{"source": "paper PMC12412624", "about": "“Engineered Cas12j‐8 is a Versatile Platform for Multiplexed Genome Modulation in Mammalian Cells”", "key": {"[1]": {"system": "T1, dCas12j-8 D527R D527R;D369A;E567A;D658A (bacteriophage (metagenome))", "T1 sequence": "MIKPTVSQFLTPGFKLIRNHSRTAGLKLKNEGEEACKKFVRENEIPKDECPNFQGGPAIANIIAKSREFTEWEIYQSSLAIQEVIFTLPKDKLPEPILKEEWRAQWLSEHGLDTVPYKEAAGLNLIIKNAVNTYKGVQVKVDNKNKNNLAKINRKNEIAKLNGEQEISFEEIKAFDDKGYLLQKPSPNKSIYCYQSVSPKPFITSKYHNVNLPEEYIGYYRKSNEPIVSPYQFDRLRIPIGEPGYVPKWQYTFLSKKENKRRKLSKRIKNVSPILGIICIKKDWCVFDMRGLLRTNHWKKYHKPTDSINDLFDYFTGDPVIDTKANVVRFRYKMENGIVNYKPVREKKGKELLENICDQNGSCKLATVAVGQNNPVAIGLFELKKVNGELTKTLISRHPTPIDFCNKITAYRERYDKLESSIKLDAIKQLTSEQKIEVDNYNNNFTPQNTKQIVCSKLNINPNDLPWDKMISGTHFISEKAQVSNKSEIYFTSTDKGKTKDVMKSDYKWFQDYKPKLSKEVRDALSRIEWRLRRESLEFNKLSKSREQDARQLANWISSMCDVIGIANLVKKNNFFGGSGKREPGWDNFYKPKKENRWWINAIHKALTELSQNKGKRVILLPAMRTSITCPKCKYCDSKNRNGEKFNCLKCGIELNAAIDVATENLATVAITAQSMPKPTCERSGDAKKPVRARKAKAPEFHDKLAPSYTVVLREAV", "settings": "HEK293T cells; panel 1c (compare within a panel only); scale: mean GFP / mean GFP of wild type, printed, no background subtraction"}, "[2]": {"system": "T2, dCas12j-8 E258R+D313R E258R;D313R;D369A;E567A;D658A (bacteriophage (metagenome))", "T2 sequence": "T1 sequence with E258R, D313R, R527D", "settings": "HEK293T cells; panel 1d (compare within a panel only); scale: mean GFP / mean GFP of wild type, printed, no background subtraction"}, "[3]": {"system": "T3, dCas12j-8 E258R+D313R+D495R+D527R E258R;D313R;D495R;D527R;D369A;E567A;D658A (bacteriophage (metagenome))", "T3 sequence": "T1 sequence with E258R, D313R, D495R", "settings": "HEK293T cells; panel 1e (compare within a panel only); scale: mean GFP / mean GFP of wild type, printed, no background subtraction"}}, "note": "Changes are numbered by the printed parent chain.", "data": [{"sequence": "CUUUCAAGACUAAUAGAUUGCUCCUUACGAGGAGACACUCCCUAUCAGUGAUAGAG / TTNACTCCCTATCAGTGATAGAG / CTCTATCACTGATAGGGAGTNAA [TetO]", "values": [{"measurement": "binding signal", "setting": "[1]", "result": 1.56}, {"measurement": "binding signal", "setting": "[2]", "result": 3.3}, {"measurement": "binding signal", "setting": "[3]", "result": 5.3}]}]}
